Measured values reported in the supplement of paper PMC9170038.

Test system: MS2 coat protein
Experiment: apparent KD of MS2 coat protein; designed switch direction (-1 OFF switch, 1 ON switch): 1; higher = weaker reporter binding
Method in brief: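 An oligonucleotide input, 200 uM small-molecule ligand, or no input was present during titration of SNAP-549-labelled MS2 coat protein, which was doubled from 0.7 or 1.5 nM to 3 µM. Designed RNA switches had been transcribed on Illumina chips by stalled E. coli RNA polymerase. Apparent KD per design is the median over clusters of curves fitted to normalised cluster fluorescence.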

[1] = Eterna round: R95, input ligand: FMN 200 uM
[2] = Eterna round: R95, input ligand: microRNA oligo, concentration not stated
[3] = Eterna round: R95, input ligand: none
[4] = input ligand: microRNA oligo, concentration not stated

| Sequence | apparent KD of MS2 coat protein [1] | apparent KD of MS2 coat protein [2] | apparent KD of MS2 coat protein [3] | apparent KD of MS2 coat protein (input ligand: FMN 200 uM) | apparent KD of MS2 coat protein [4] | apparent KD of MS2 coat protein (input ligand: none) |
| --- | --- | --- | --- | --- | --- | --- |
| CUGCUACAUGAGGAUCACCCAUGUUGGAGUGAUGCAGGAUAUGUGGGACCAGAAGAUGAAACAGAAGGGCAAGGAG [JR_SS!_Sub006] (puzzle: Same State 1) | 110 nM | 95.7 nM | 152 nM | – | – | – |
| AUUUGCGCUAUAGGAUAUGGCAGGGUGAACCAGCCAGAAGGAUAAGUAGGGAGGUGACAUGAGGAUCACCCAUGUAAUAAGGAA [Eternabot solution 6] (Eterna round: R96, puzzle: Same State NG 1) | – | – | – | 330 nM | 290 nM | 378 nM |
| AAAAGAAACACAGGAUAUACCGCACUUAACGCGGUAGAAGGGUGGGACAUGAGGAUCACCCAUGUGGCCUAAGCGCCAGGCCGC [Tibiorvela] (Eterna round: R96, puzzle: Same State NG 1) | – | – | – | 3890 nM | 13.1 nM | 211 nM |
| CACAAUCUAUCUGAGGAUAUCAUGAAAAAAACAUGAGGAUCACCCAUGUGCAGGAAAACUGCAUAUGAGAAGGCAGAUAGAUUGU [salish99_SS2_r3_015] (Eterna round: R96, puzzle: Same State 2) | – | – | – | – | 514 nM | – |
| AUAAAACAUGAGGAUCACCCAUGUCAACAAAGUCGAGGAUAUGGGCAAAUAAAAUAAGAACCAGAAGGCGAAUUAU [salish99_ss1_r3_036] (Eterna round: R96, puzzle: Same State 1) | – | – | – | 36.8 nM | 185 nM | 247 nM |
| ACAUGAGACUGAGGAUAUGUUGUACCUACAUGUGACAUGAGGAUCACCCAUGUGGUAAGUAUGAUACAGAAGGCAGAGAUAUGU [Equivalance 63 - Jieux - Same State NG 2] (Eterna round: R96, puzzle: Same State NG 2) | – | – | – | 14.2 nM | 14.5 nM | 22.1 nM |
| AGGCUCAGACGAGGAUAUGAUCAUGGCGCUUCGGCGCAUACAUGAGGAUCACCCAUGUAAAGUGAUCAGAAGGUGUCUGAGCCA [SSNG2/7-B1] (Eterna round: R96, puzzle: Same State NG 2) | – | – | – | 13.9 nM | 11 nM | 16.1 nM |
| AUGGUGCAGGUACAGGAUAUGUUGCUCGUAACAUGAGGAUCACCCAUGUACCUAUGAGAUUAAAUGCAGAAGGGUGCACACCAAA [Mat - Same State 2 - Mod of UCT - D90] (Eterna round: R96, puzzle: Same State 2) | – | – | – | 38.1 nM | 224 nM | 1350 nM |
| GAGUAGGAGUUACAGGAUAUAUGGAGGAGGACAUGAGGAUCACCCAUGUGAGAGAUGAGAGGAGGAUAGAAGGGUAAGGGAGUAA [JR_SS2_Sub028] (puzzle: Same State 2) | 24 nM | 20.6 nM | 46.2 nM | – | – | – |
| GUUAUACAUGAGGAUCACCCAUGUCAAUGUAGUCGAGGAUAUGGGCAGCUAUGUAGCGUACUAGAAGGCGAAGAGU [JL-ss1-3.13 ViennaUCT mod] (puzzle: Same State 1) | 68.4 nM | 43.1 nM | 103 nM | – | – | – |
| UUGAUUAACGUAGGAUAUCGACCUACAUGAGGAUCACCCAUGUCUUUGAAUAGAUUUUUUUGUUACGAGAAGGACGUUAUGUAU [JR_SSNG2_Sub066] (Eterna round: R96, puzzle: Same State NG 2) | – | – | – | 40.7 nM | 49.6 nM | 89.4 nM |
| AACAUGUGGUGUCACAUGAGGAUCACCCAUGUGGUAAAAGCUGAGGAUAUAAAGAGAAACAUGAAUUAGAAGGUAGGAUCACAA [AK SSNG3-V2-19] (Eterna round: R96, puzzle: Same State NG 3) | – | – | – | 177 nM | 138 nM | 127 nM |
| UGUUGUAUUACAGGAUAUCUAUUAGUUAUAUUUAGAGAAGGGUAUUCACAUGAGGAUCACCCAUGUAUAUACGAGGAAGUUGUG [JMF's solution 91] (Eterna round: R96, puzzle: Same State NG 1) | – | – | – | – | 42.3 nM | – |
